Experimental data reported in patent US20250388702A1 (Dana-Farber, published 2025).

T1: Human HHLA2-mIgG2a fusion protein (human; mouse, UniProt Q9UM44 23-344, limits assumed)
T1 construct: also called HHLA2-Ig; HHLA2-mouse IgG2a; not shown: mutated at IgG2a L235E, E318A, K320A, K322A
T1 sequence: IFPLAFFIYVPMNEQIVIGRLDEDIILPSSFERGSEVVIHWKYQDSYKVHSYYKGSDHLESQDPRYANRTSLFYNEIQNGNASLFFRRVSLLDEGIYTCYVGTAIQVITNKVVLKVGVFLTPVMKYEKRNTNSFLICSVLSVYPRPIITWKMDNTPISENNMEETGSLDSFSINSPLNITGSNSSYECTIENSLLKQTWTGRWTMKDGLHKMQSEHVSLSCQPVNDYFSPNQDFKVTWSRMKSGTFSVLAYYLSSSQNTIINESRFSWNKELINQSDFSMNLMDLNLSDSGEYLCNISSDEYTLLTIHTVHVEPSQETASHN


Target: T1, Human HHLA2-mIgG2a fusion protein
Assay: cell microarray on transfected HEK293 cells, HHLA2-mIgG2a probe, AF647 anti-mouse IgG detection
Protocol: A library of ˜5500 full length cDNA clones covering more than 3,500 different plasma membrane proteins was arrayed in duplicate across 13 microarray slides (“slide sets”). Human HEK293 cells were grown above the cDNA clones and reverse-transfected. An expression vector (pIRES-hEGFR-IRES-ZsGreen1) was spotted in quadruplicate on every slide and was used to ensure that a minimal threshold of transfection efficiency had been achieved or exceeded on every slide.
Two replicate slides were screened for each of the 13 slide sets. Fluorescent images were analyzed and quantitated (for transfection efficiency) using ImageQuant software (GE). A protein ‘hit’ was defined as duplicate spots showing a raised signal compared to background levels. This was achieved by visual inspection using the images gridded on the ImageQuant software.

| Binder | binding result |
| --- | --- |
| KIR2DS5 (receptor, UniProt Q14953 22-304, looked up, whole, on cells) HEGFRRKPSLLAHPGPLVKSEETVILQCWSDVMFEHFLLHREGTFNHTLRLIGEHIDGVSKGNFSIGRMTQDLAGTYRCYGSVTHSPYQLSAPSDPLDIVITGLYEKPSLSAQPGPTVLAGESVTLSCSSRSSYDMYHLSREGEAHERRLPAGPKVNRTFQADFPLDPATHGGTYRCFGSFRDSPYEWSKSSDPLLVSVTGNSSNSWPSPTEPSSETGNPRHLHVLIGTSVVKLPFTILLFFLLHRWCSNKKNASVMDQGPAGNRTVNREDSDEQDHQEVSYA | no binding (tested: 20 ug/ml) |
| CD86 (ligand, human, UniProt P42081 24-329, looked up, full length, on the cell surface) single chain: APLKIQAYFNETADLPCQFANSQNQSLSELVVFWQDQENLVLNEVYLGKEKFDSVHSKYMGRTSFDSDSWTLRLHNLQIKDKGLYQCIIHHKKPTGMIRIHQMNSELSVLANFSQPEIVPISNITENVYINLTCSSIHGYPEPKKMSVLLRTKNSTIEYDGVMQKSQDNVTELYDVSISLSVSFPDVTSNMTIFCILETDKTRLLSSPFSIELEDPQPPPDHIPWITAVLPTVIICVMVFCLILWKWKKKKRPRNSYKCGTNTMEREESEQTKKREKIHIPERSDEAQRVFKSSKTSSCDKSDTCF | no binding (tested: 20 ug/ml) |
| KIR2DL3 (receptor, UniProt P43628 22-341, looked up, whole, on cells) HEGVHRKPSLLAHPGPLVKSEETVILQCWSDVRFQHFLLHREGKFKDTLHLIGEHHDGVSKANFSIGPMMQDLAGTYRCYGSVTHSPYQLSAPSDPLDIVITGLYEKPSLSAQPGPTVLAGESVTLSCSSRSSYDMYHLSREGEAHERRFSAGPKVNGTFQADFPLGPATHGGTYRCFGSFRDSPYEWSNSSDPLLVSVTGNPSNSWPSPTEPSSETGNPRHLHVLIGTSVVIILFILLLFFLLHRWCCNKKNAVVMDQEPAGNRTVNREDSDEQDPQEVTYAQLNHCVFTQRKITRPSQRPKTPPTDIIVYTELPNAEP | no binding (tested: 20 ug/ml) |
| KIR2DS1 (receptor, UniProt Q14954 22-304, looked up, whole, on cells) HEGVHRKPSLLAHPGRLVKSEETVILQCWSDVMFEHFLLHREGMFNDTLRLIGEHHDGVSKANFSISRMKQDLAGTYRCYGSVTHSPYQLSAPSDPLDIVIIGLYEKPSLSAQPGPTVLAGENVTLSCSSRSSYDMYHLSREGEAHERRLPAGTKVNGTFQANFPLGPATHGGTYRCFGSFRDSPYEWSKSSDPLLVSVTGNPSNSWPSPTEPSSETGNPRHLHVLIGTSVVKIPFTILLFFLLHRWCSDKKNAAVMDQEPAGNRTVNSEDSDEQDHQEVSYA | no binding (tested: 20 ug/ml) |
| KIR2DS2 (receptor, UniProt P43631 22-304, looked up, whole, on cells) HEGVHRKPSLLAHPGPLVKSEETVILQCWSDVRFEHFLLHREGKYKDTLHLIGEHHDGVSKANFSIGPMMQDLAGTYRCYGSVTHSPYQLSAPSDPLDIVITGLYEKPSLSAQPGPTVLAGESVTLSCSSRSSYDMYHLSREGEAHERRFSAGPKVNGTFQADFPLGPATHGGTYRCFGSFRDSPYEWSNSSDPLLVSVTGNPSNSWPSPTEPSSKTGNPRHLHVLIGTSVVKIPFTILLFFLLHRWCSNKKNAAVMDQEPAGNRTVNSEDSDEQDHQEVSYA | no binding (tested: 20 ug/ml) |
